# Data taken from US12661385B2, “Modulation of mTORCI activity and autophagy via CIB2-RHEB interaction” (University of Maryland, Baltimore, priority 2018, dated 2026).
# Assays:
# RPE-J cells = experiment: LC3-II induction / LC3 flux immunoblots in transfected RPE-J cells; format: cell-based, rat; conditions: RPE-J cells overexpressing CIB2 vs GFP, in the presence of bafilomycin A1, 24 hrs
# Method: FIG. 13. Loss of CIB2, specifically in the RPE, leads to LC3 flux deficits, while CIB2 overexpression, in vitro, restores LC3 flux._a-d, RPE whole mounts treated with DMSO or 50 μM bafilomycin A1 (Baf-A1) overnight show reduced levels of LC3-II, quantified in panels b and d, in Cib2 deficient mice as compared to WT controls, indicating autophagy deficits. Ratio for WT or RPE-Cre+; Cib2^+/+ was set to 1. e. Representative immunoblots for LC3-II induction in transiently transfected (GFP or CIB2-IRES-GFP) RPE-J cells treated with DMSO, 50 μM bafilomycin-A1 (Baf-A1), or 100 nM rapamycin (Rapa) for 24 hrs. f. Quantification of LC3 flux (ratio of LC3-II/actin in Baf-A1 to DMSO treated samples) or LC3B-II/actin ratio up on rapamycin treatment for immunoblots shown in (e). […]
# Complementary to the findings of Cib2 mutant mice, over-expressing CIB2 in RPE-J cells increased LAMP-1 and ATG5-ATG12 complex proteins levels (FIG. 12c-d). […] To test this idea, we assessed LC3-II flux. LC3-I is a cytosolic protein which when lipidated with a phosphatidylethanolamine adduct (LC3-II form) localizes to the growing auto/phagosome membrane, and thus can be used as a reliable readout for the dynamic autophagic process (Valapala et al., Autophagy 10, 480-496 (2014); Kim et al., Noncanonical Autophagy Promotes the Visual Cycle. Cell 154, 365-376 (2013); Klionsky et al., Autophagy 12, 1-222 (2016)). […]
# mTORC1 = experiment: Phosphoprotein immunoblots of HEK293 cells overexpressing increasing amounts of CIB2, mTORC1 targets; format: cell-based
# Method: FIG. 3. […] Note the stronger interaction between CIB2 and Rheb S20N variant as compared to Q64L variant (GDP vs GTP mimetic, respectively). c, CIB2 preferentially interacts with GDP-loaded Rheb is further confirmed by co-IP experiments of HA-GST-Rheb immobilized on […] and loaded with either GDP or GTPγS, followed by incubation with tdTomato-CIB2 lysate. d, Proposed model of CIB2 function in retinal sensory cells. […] Loss of CIB2 results in reduced autophagy and exacerbated mTORC1 signaling, thus leading to RPE pathology and secondary PR dysfunction. e, f Immunoblots from RPE/choroid lysates from dry AMD or control age-matched donors indicate reduced CIB2 expression, overactive mTORC1 and reduced autophagy, quantified in panel f. Unpaired two-tailed 1 test was used to determine statistical significance. p value of <0.05 (*), <0.01 (**), and <0.001 (***). Please note that one control sample (ψ) is outliner and is highly variant from the rest, Re-quantification, omitting the highly variant control sample, is shown in FIG. 15. g.
# mTORC1 integrates various metabolic and amino acid signals through its nutrient-sensing arm and growth signals, which converge on the small GTPase Rheb, via the TSC complex (Wolfson et al., Cell Metabolism 26, 301-309 (2017)). We first tested if CIB2 is a specific negative regulator of mTORC1 and/or mTORC2. We used HEK293 cells, because the mTORC1 signaling pathway is well-established in this cell line, and to expand CIB2 functions beyond the RPE.
# 80% confluent HEK293 cells in 10-cm dishes were transfected for co-IP experiments with 10 μg of indicated plasmid/s using the polyethylenimine (PEI) method (3:1::PEI:DNA). 2 plates per condition were used. 36 hr later the plates were chilled on ice, washed once with ice-cold PBS, and cells collected in ice-cold PBS and centrifuged for 2 min at 1500 RPM at 4° C. Cell pellet was then lysed in IP buffer (0.3% CHAPS, 40 mM HEPES, 2.5 mM MgCl2, 1× Protease inhibitors, 1 mM Na orthovanadate, 10 mM Na glycerophosphate, 10 mM NaF) on ice for 20 min, followed by centrifuging at full speed for 20 min at 4° C. […]
molecule,measurement,setting,value
"CIB2: calcium and integrin binding protein 2, over-expressed in cells from plasmid constructs; SEQ ID NO:1 (human), SEQ ID NO:2 (mouse) (protein, left off: large carriers) MGNKQTIFTEEQLDNYQDCTFFNKKDILKLHARFYELAPNLVPMDYRKSPIVHVPMSLIIQMPELRENPFKERIVEAFSEDGEGNLTFNDFVDMFSVLCESAPRELKANYAFKIYDFNTDNFICKEDLEMTLARLTKSELEEDEVVLVCDKVIEEADLDGDGKLGFADFEDMIAKAPDFLSTFHIRI",Relative LC3 flux (ratio of LC3-II/actin in Baf-A1 to DMSO treated samples),RPE-J cells,markedly increased
same,Phosphorylation of 4E-BP1,mTORC1,decreasing phosphorylation
same,Phosphorylation of S6K1,mTORC1,decreasing phosphorylation
same,Phosphorylation of ULK1,mTORC1,decreasing phosphorylation
